Reference: the RNAGym collection of RNA variant scans (doi:10.1093/nar/gkz1192)

B1: CPEB3 Ribozyme (parent)
chain: UAACAGGGGGCCACAGCAGAAGCGUUCACGUCGCAGCCCCUGUCAGAUUCUGGUGAAUCUGCGAAUUCUGCUGUAUAUCUC

Variants of: B1
Experiment: self-cleavage, relative activity (ratio to wild type); higher = more cleavage; in vitro, sequencing
Procedure, shortened: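 CPEB3 self-cleaving ribozyme mutant libraries were made by rounds of error-prone PCR, barcoded, and transcribed in vitro with T7 RNA polymerase for 5 hours at 37°C. Cleavage occurred during transcription and a 15 min DNase I step before EDTA stop. RNAs were reverse transcribed with template switching and Illumina-sequenced, with DNA sequencing mapping barcodes to variants. Relative activity is the variant's cleaved/total read fraction divided by wild type's (minimum 5 reads), averaged across three batches.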

| Variant | self-cleavage |
| --- | --- |
| A57U U69A | 0.4 |
| A57U U69G | 0.44 |
| A57U U69C | 0.3 |
| U58C C59U | 0.21 |
| A57G U72A | 0.62 |
| A57G U72G | 1.01 |
| A57G U72C | 1.05 |
| A57G C68G | 0.4 |
| A57G C68U | 0.77 |
| U58C A75U | 0.7 |
| U58C A75G | 0.46 |
| U60C | 0.54 |
| U60A | 0.57 |
| U60A C71U | 0.48 |
| U60A C71A | 0.39 |
| U60A C71G | 0.35 |
| U58A U60A | 0.17 |
| U58A U60G | 0.17 |
| U58A U60C | 0.23 |
| A57G U80A | 1.06 |
| A57G U80G | 1.12 |
| A57G U80C | 1 |
| A57G U58G | 0.22 |
| A57G U58A | 0.28 |

| Variant | self-cleavage |
| --- | --- |
| A57G U58C | 0.33 |
| A57G U66G | 0.53 |
| A57G U66C | 0.4 |
| A57G U66A | 0.37 |
| A57U | 0.8 |
| A57G | 0.96 |
| U58C U69G | 0.15 |
| U58C U69A | 0.3 |
| U58C U69C | 0.27 |
| U58G U66C | 0.27 |
| U60A U74G | 0.91 |
| U60A U74A | 0.75 |
| U60A U74C | 1.04 |
| U60A U80A | 0.59 |
| U60A U80C | 0.63 |
| U60A U80G | 0.84 |
| A57U U67A | 0.38 |
| A57U U67C | 0.22 |
| A57C U80C | 0.67 |
| U58C A64U | 0.33 |
| U58C A64G | 0.36 |
| A57U U72C | 0.89 |
| A57U U72A | 0.43 |
| U60C C62U | 0.33 |

| Variant | self-cleavage |
| --- | --- |
| U60C C62A | 0.19 |
| U60A A64C | 0.13 |
| U60A A64G | 0.43 |
| U60A A64U | 0.33 |
| U58G A65G | 0.1 |
| U58A A75U | 0.29 |
| U58A A75G | 0.46 |
| U58C A65U | 0.21 |
| U58C A65G | 0.27 |
| U58C A65C | 0.14 |
| C59U U76C | 0.97 |
| U58A A64G | 0.32 |
| C59A A75G | 0.16 |
| C59A A75U | 0.13 |
| C59A G70U | 0.13 |
| C59U U67A | 0.28 |
| C59U U67C | 0.21 |
| U58A G70C | 0.14 |
| U58C U67A | 0.28 |
| U58C U67C | 0.29 |
| U58C C81U | 0.68 |
| U58C C81A | 0.75 |
| U58C C81G | 0.82 |
| A57G C79U | 1.1 |

| Variant | self-cleavage |
| --- | --- |
| A57G C79A | 0.73 |
| C59U C62U | 0.16 |
| U60A C81U | 0.76 |
| U60A C81G | 0.93 |
| U58A C62U | 0.23 |
| A57G A77G | 0.87 |
| A57G A77U | 0.9 |
| U58C G61U | 0.21 |
| A57U A75G | 0.69 |
| A57U A75U | 1.08 |
| U60A U78A | 0.72 |
| U60A U78G | 0.38 |
| U60A U78C | 0.44 |
| U58G G63A | 0.45 |
| C59A U76A | 0.43 |
| C59A U76G | 0.33 |
| U58A U72C | 0.43 |
| U58A U72G | 0.42 |
| U58A U72A | 0.38 |
| U58C U72C | 0.59 |
| U58C U72A | 0.39 |
| U58C U72G | 0.55 |
| C59G U76A | 0.47 |
| C59U U60C | 0.34 |

| Variant | self-cleavage |
| --- | --- |
| C59U U60A | 0.28 |
| U60C C71U | 0.3 |
| U60C C71A | 0.25 |
| U60C G63U | 0.58 |
| U60C G63C | 0.54 |
| U60C G63A | 0.57 |
| U58A U76A | 0.49 |
| A57U C79G | 1.16 |
| U58A G63A | 0.59 |
| A57G C62U | 0.33 |
| A57U U66C | 0.33 |
| U58A A65U | 0.13 |
| U58A A65G | 0.17 |
| U60A G63U | 0.53 |
| U60A G63C | 0.75 |
| U60A G63A | 0.61 |
| U60C A64C | 0.61 |
| U60C A64U | 0.31 |
| U60C A64G | 0.36 |
| U58G U76A | 0.51 |
| C59A U80G | 0.33 |
| C59A U80C | 0.38 |
| A57U C62U | 0.21 |
| U60A G70A | 0.52 |

| Variant | self-cleavage |
| --- | --- |
| C59A U60A | 0.31 |
| C59A U60C | 0.19 |
| A57G U74A | 1.2 |
| A57G U74G | 1.23 |
| A57G U74C | 1.15 |
| A57U U58A | 0.3 |
| A57U U58C | 0.18 |
| A57U U58G | 0.1 |
| U58C U74C | 0.87 |
| C59U U74C | 1.1 |
| C59U U74A | 1.6 |
| A57C U66A | 0.2 |
| A57C U66C | 0.16 |
| C59A A65G | 0.13 |
| C59A A65U | 0.05 |
| U58A U74C | 0.67 |
| U58A U74A | 0.6 |
| U60A U76C | 0.56 |
| U60A U76A | 0.61 |
| C59U A75G | 0.81 |
| U58C G70A | 0.37 |
| A57C U60A | 0.14 |
| U60A G73A | 1.16 |
| U58C C79U | 0.6 |

| Variant | self-cleavage |
| --- | --- |
| C59A | 0.37 |
| C59G | 0.32 |
| C59U | 0.95 |
| C59U U78C | 0.94 |
| C59U U78A | 1.17 |
| A57G C81U | 1.13 |
| A57G C81G | 1.2 |
| U60A G61C | 0.22 |
| U60A G61U | 0.38 |
| A57G G70A | 0.49 |
| A57G G70C | 0.22 |
| U58A U66C | 0.29 |
| C59G U78C | 0.27 |
| U58G U72A | 0.24 |
| U58G U72C | 0.28 |
| U58G U72G | 0.44 |
| U60A A75G | 0.46 |
| U60A A75U | 0.62 |
| U58A U80A | 0.5 |
| U58A U80C | 0.46 |
| U60C C79G | 0.81 |
| U60C C79A | 0.93 |
| U60C C79U | 0.72 |
